The values below come from patent US20250084174A1 (AstraZeneca / MedImmune, published 2025).

By EC50 (read off the curve) is commonly meant the concentration that produces a half-maximal response. Read a high EC50 (read off the curve) as weaker potency.

One test has as its target T1, CXCR1 (UniProt P25024 1-350, limits assumed).
T1 construct: whole, on cells; The cell line is not described
T1 sequence (looked up): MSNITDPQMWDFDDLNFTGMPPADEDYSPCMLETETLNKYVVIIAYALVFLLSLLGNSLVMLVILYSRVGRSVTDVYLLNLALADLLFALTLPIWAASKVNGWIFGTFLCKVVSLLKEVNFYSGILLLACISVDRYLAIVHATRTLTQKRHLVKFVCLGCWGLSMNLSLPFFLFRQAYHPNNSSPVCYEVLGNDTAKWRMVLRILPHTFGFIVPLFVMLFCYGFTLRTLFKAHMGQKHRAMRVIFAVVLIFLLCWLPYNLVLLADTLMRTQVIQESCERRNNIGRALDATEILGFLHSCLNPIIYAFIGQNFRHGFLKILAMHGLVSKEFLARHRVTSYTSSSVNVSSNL
Put plainly: binding to cells expressing CXCR1, fluorescence counts (FL1 Counts) against Log M.

For the next test, the target named is T2, CCR8 (UniProt P51685 1-355, limits assumed).
T2 construct: whole, on cells; The cell line is not described
T2 sequence (P51685 whole entry): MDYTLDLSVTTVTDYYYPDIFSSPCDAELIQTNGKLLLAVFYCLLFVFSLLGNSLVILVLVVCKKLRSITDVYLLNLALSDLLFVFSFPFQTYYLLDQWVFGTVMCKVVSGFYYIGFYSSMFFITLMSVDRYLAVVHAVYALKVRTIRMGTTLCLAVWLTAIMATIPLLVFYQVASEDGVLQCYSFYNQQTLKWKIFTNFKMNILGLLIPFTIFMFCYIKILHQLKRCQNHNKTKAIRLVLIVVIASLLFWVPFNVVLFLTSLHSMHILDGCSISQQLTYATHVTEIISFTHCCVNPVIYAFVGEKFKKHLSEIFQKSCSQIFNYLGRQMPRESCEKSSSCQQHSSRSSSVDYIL
Put plainly: binding to cells expressing CCR8, fluorescence counts (FL1 Counts) against Log M.

The target of another test is T3, CXCR2 (UniProt P25025 1-360, limits assumed).
T3 construct: whole, on cells; The cell line is not described
T3 sequence (looked up): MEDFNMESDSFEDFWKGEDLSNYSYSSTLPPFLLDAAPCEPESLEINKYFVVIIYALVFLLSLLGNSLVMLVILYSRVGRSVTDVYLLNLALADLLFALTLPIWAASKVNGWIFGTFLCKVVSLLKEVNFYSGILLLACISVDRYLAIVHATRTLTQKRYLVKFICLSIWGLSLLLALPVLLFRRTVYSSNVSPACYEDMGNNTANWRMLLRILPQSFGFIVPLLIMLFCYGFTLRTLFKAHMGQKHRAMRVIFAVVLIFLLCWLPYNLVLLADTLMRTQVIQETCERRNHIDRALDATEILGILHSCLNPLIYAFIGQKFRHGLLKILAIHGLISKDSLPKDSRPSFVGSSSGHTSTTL
The experiment in a line: binding to cells expressing CXCR2, fluorescence counts (FL1 Counts) against Log M.

In a further test the target is T4, CCR5 (UniProt P51681 1-352, limits assumed).
T4 construct: whole, on cells; The cell line is not described
T4 sequence (P51681 whole entry): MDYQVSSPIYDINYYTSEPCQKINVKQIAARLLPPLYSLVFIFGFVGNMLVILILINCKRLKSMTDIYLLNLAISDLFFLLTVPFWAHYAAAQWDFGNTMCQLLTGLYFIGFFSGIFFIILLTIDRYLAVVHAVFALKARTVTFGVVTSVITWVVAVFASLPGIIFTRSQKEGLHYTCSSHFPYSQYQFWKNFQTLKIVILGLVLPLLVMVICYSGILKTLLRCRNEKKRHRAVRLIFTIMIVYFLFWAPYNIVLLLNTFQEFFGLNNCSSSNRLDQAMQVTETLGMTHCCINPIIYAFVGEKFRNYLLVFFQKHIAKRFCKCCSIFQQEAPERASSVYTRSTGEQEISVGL
Put plainly: binding to cells expressing CCR5, fluorescence counts (FL1 Counts) against Log M.

Another test addresses T5, human CCR9B (human, UniProt P51686 13-369).
T5 construct: Overexpressed on HEK cells; also called Hu B HEK; hCCR9 isoform B
T5 sequence: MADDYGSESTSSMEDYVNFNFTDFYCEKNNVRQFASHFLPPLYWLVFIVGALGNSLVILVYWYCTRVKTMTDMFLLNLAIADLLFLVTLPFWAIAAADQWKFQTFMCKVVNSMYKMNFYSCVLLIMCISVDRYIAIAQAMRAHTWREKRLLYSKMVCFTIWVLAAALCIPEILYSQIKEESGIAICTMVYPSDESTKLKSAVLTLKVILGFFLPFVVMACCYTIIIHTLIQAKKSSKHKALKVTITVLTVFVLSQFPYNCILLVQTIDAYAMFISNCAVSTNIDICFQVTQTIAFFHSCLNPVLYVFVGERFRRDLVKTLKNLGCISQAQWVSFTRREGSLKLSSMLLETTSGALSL
The experiment in a line: binding to HEK cells expressing human CCR9B, fluorescence counts (FL1 Counts) against Log M.

The target of a further test is T6, cynomolgus CCR9 (cynomolgus, UniProt Q0H741 1-369).
T6 construct: Overexpressed on HEK cells, or endogenous on cynomolgus PBMC; also called cynomolgus CCR9A; Cyno HEK
T6 sequence: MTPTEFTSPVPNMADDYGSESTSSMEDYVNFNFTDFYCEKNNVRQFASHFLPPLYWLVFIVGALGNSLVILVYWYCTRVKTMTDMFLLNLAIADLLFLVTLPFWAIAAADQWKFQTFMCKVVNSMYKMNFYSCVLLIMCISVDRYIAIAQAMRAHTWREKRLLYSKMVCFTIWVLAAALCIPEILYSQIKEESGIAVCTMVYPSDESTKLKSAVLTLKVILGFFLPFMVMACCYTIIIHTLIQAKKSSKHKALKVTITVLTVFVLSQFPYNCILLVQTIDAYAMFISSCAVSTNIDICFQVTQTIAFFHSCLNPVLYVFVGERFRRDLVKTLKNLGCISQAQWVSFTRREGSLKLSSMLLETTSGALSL
Put plainly: binding to HEK cells expressing cynomolgus CCR9, fluorescence counts (FL1 Counts) against Log M.

B1: humanised AB1020243 afuc (AB1020243-fgl) (antibody, V domains shown)
VH: QVQLVQSGAEVKKPGASVKVSCKASGYTFTSYWMHWVRQAPGQGLEWIGVIYPGNSDTRYNQKFKGRVTITRDTSASTAYMELSSLRSEDTAVYYCTRDYYSNYVYYYAMDYWGQGTTVTVSS
VL: DIVMTQTPLSLPVTPGEPASISCRSSQSLVHSNGNTYLHWYLQKPGQSPQLLIYKVSNRFSGVPDRFSGSGSGTDFTLKISRVEAEDVGVYYCSQSTHVPWTFGQGTKLEIK
modifications: afucosylated form; in the LigandTracer assay DyLight 650 Maleimide on an engineered cysteine residue in the CH2 region
notes: Human IgG1 format is stated for LigandTracer; Full chains are not tied to the tested lot
For B1, the binding result with CXCR1 is reported as “no binding (tested: Log M about -6.5 (about 3e-7 M))”; in the test with CCR8, “no binding (tested: Log M about -6.5 (about 3e-7 M))”; with CXCR2 it was “no binding (tested: Log M about -6.5 (about 3e-7 M))”; with CCR5 it was “no binding (tested: Log M about -6.5 (about 3e-7 M))”; with human CCR9B, “binds”. For the same molecule, in the test with cynomolgus CCR9, the “EC50 (read off the curve)” value was about 0.4 nM.
